Measurements taken from article PMC6628147.
“And” between values parts separate entries of the source, which are not always exact repeats. Equal values may be shown once.

Key:
Test in all cases: EMSA
Conditions in all cases: EMSA: 1 nM 6-FAM DNA, 0-1.28 uM protein, 1 h at 37 C, binding buffer not stated; 6% PAGE in 40 mM Tris pH 7.6, 20 mM acetic acid, 1 mM EDTA at 4 C (effectors …)
[1] = test system: CatM(I18F,K38N)-His (Acinetobacter baylyi ADP1)
[2] = test system: CatM-His (Acinetobacter baylyi ADP1)
[3] = test system: BenM-DBDCatM(F293Y,H160R)-His (Acinetobacter baylyi ADP1)
[4] = test system: BenM-DBDCatM-His (Acinetobacter baylyi ADP1)

## PbenA operator-promoter
[1]
  Kd: 42 nM and 32 nM (2×) and 34 nM
[2]
  Kd: 70 nM and 71 nM (2×) and 67 nM
[3]
  Kd: 1 nM and 4 nM (2×) and 2 nM

## PcatB operator-promoter
[4]
  Kd: 1 nM and 3 nM (2×) and 4 nM
[2]
  Kd: 11 nM and 19 nM (2×) and 10 nM
[3]
  Kd: 3 nM
